B1: Guanyl-specific ribonuclease T1, P00651 (parent)
chain: MMYSKLLTLTTLLLPTALALPSLVERACDYTCGSNCYSSSDVSTAQAAGYQLHEDGETVGSNSYPHKYNNYEGFDFSVSSPYYEWPILSSGDVYSGGSPGADRVVFNENNQLAGVITHTGASGNNFVECT

Variants of: B1
Conditions: Aspergillus oryzae (strain ATCC 42149 / RIB 40), 0 °C, Urea, CD, reversible: yes, structure 1RN1, whole UniProt chain shown

Row | Variant | ddG of mutation (higher = less stable) (pH 2.5, glycine 30 mM) [kcal/mol] | denaturant m value (pH 2.5, glycine 30 mM) [kcal/mol/M] | denaturant midpoint (higher = more stable) (pH 2.5, glycine 30 mM) [M] | ddG of mutation (higher = less stable) (pH 7, MOPS 30 mM) [kcal/mol] | denaturant m value (pH 7, MOPS 30 mM) [kcal/mol/M] | denaturant midpoint (higher = more stable) (pH 7, MOPS 30 mM) [M]
1 | A47M | 0.15 | 1.6 | 2.69 | – | – | –
2 | A47H | 0.56 | 1.79 | 2.44 | 0.17 | 1.27 | 4.18
3 | A47Q | – | – | – | 0.4 | 1.12 | 3.99
4 | A47T | 0.57 | 1.6 | 2.43 | – | – | –
5 | A47R | 0.41 | 1.65 | 2.53 | – | – | –
6 | A47F | 0.57 | 1.69 | 2.43 | – | – | –
7 | A47W | 0.3 | 1.56 | 2.6 | – | – | –
8 | A47K | 0.51 | 1.7 | 2.47 | – | – | –
9 | A47I | 0.44 | 1.57 | 2.51 | – | – | –
10 | A47D | -0.33 | 1.59 | 2.98 | 0.71 | 1.24 | 3.73
11 | A47C | 0.74 | 1.56 | 2.33 | – | – | –
12 | A47V | 0.66 | 1.77 | 2.38 | – | – | –
13 | A47E | -0.05 | 1.52 | 2.81 | 0.69 | 1.14 | 3.75
14 | A47Y | 0.39 | 1.69 | 2.54 | – | – | –
15 | A47S | 0.49 | 1.67 | 2.48 | 0.4 | 1.22 | 3.99
16 | A47N | -0.34 | 1.72 | 2.99 | – | – | –
17 | A47G | 0.9 | 1.71 | 2.23 | – | – | –
18 | A47L | 0.13 | 1.64 | 2.7 | – | – | –
